According to the nanobody polyreactivity screen of Harvey et al. (2022):

Test: yeast display, Sf9 membrane polyspecificity reagent, FACS + sequencing; frameworks hold sequencing errors
In short: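 Nanobodies from a synthetic yeast display library (Saccharomyces cerevisiae BJ5465), induced 36–48 hours with galactose, were stained 1 hour at 4 °C with 10% biotinylated, detergent-solubilized Sf9 membrane reagent, enriched on streptavidin microbeads, then FACS-sorted. Anti-HA (expression) and streptavidin (reagent binding) fluorescence set low and high (top ~1%) gates. Polyreactivity labels come from the gate of origin. Genes were colony-PCR amplified, MiSeq 2 × 250 sequenced and filtered by CDR length.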

Sequence	polyreactivity (PSR sort gate)
QFQLVESGGGLVQAGGSLRLSCAASGITFYRYAMGWYRQAPGKERELVASISSRGSSTYYADSVKGRFTISRDNAKNTVYLQMNSLKPEDTAVYYCAKSRGSRGFVASTYNYWGQGTQVTVSS	high polyreactivity
QFQLVESGGGLVQAGGSLRLSCAASGLIFYFYAMGWYRQAPGKEREFVAAISSGGDTYYADSVKGRFTISRDNAKNTVYLQMNSLKPEDNAVYYCAARRYRRGRSDYWGQGTQVTVSS	high polyreactivity
QFQLVESGGGLVQAGGSLRLSCAASGRIFARNTMGWYRQAAGKERELVAAITYSGGNTYYADSVKGRFTISRDNAKNTVYLQMNSLKPEDTAVYDCNKASFGRLRKKIMDYWGQGTQVTVSS	high polyreactivity
QFQLVESGGGLVQAGGSLRLSCAASGRIFCSYAMGWYIQAPGKERELVAAITSGGSTNYADSVKARFTISRDNAKNTVYLLMNSLKQEDTAVYYCADVEYLRESDYWGQGTQVTVSS	low polyreactivity
QFQLVESGGGLVQAGGSLRLSCAASGRIFGGYAMGWYRQAPVKERELVAAIRDSGRTYYADSVKGRFTISRDNAKNTVYLQMNSLKQEDTAVYYFAADAHSTYAPFRWYDYCGQGTQVTVSS	low polyreactivity
QFQLVESGGGLVQAGGSLRLSCAASGRIFRYYDMGWYRQAPGKERELVAAISFSGGSTYYADSVKGRFTISRDNAKNTVYLQMNSLKQEDTAVYYCAAGWRALYLSTYDYWGQGTQVTVSS	high polyreactivity
QFQLVESGGGLVQAGGSLRLSCAASGRIFVYNDMVWYRQAPGKEREFVATITSSGGRTYYADSVKGRFTISRDNAKNTVYLQMNRLKPEDTAVYYCNKVGYSNLLGYDYWGQGTQVTVSS	high polyreactivity
QFQLVESGGGLVQAGGSLRLSCAASGRIFYKYVMGWYRQAPGKERELVAAINRSGGTTYYADSVKGRFTISRDNAKNTVYLQMNSLKPEDTAVYYCNATLPDYWPYYYYQGGDDYWGQGTQVTVSS	low polyreactivity
QFQLVESGGGLVQAGGSLRLSCAASGRIFYSYAMGWYRQAPGKERELVAAISRSGTSTFYADSLKGRFTISRDNAKNTVYLQMNSLKPEDTAVYYCNAVISPYVIRSEYWGQGTQVTVSS	low polyreactivity
QFQLVESGGGLVQAGGSLRLSCAASGRIFYYYAMGWDRQAPGKERELVASINSVGTTTYADSVKGRFTISRDNAKNTVYLQMNSLKPEDTAVYYCARDTGSIYYDGYEYDYWGQGTQVTVSS	low polyreactivity
QFQLVESGGGLVQAGGSLRLSCAASGRTFVINAMGWYRQAPGKERELVAAISRGGSRTFYADSVKGLFTISRDTAKNTVYLQMNSLKPVDTAVYYCNAVAQSGRYDYWGQGTQVTVSS	high polyreactivity
QFQLVESGGGLVQAGGSLRLSCAASGRTLYGYAMGLYRQAPGKERELVAAISGSGTITYYADSVKGRFTISRDNAKNTVYLQMNSLKPEDTAVYYCNKRRAGQSRRVDSWGQGTQVTVSS	high polyreactivity
QFQLVESGGGLVQAGGSLRLSCAASGSIFISNAMGWYRQAPGKERDLVAAISWTSGSTYYADSVKGRFTISRDNAKNTVYLQMNSLKPVDTAFYYCAALGGAALDWGVVEVGYWGKGTQVTVSS	low polyreactivity
QFQLVESGGGLVQAGGSLRLSCAASGSIFSVYTMGWYRQAPGKERELVAAISTGGGSTYYADSVKGRFTISRDNAKNTVYLQMNSLKPEDTAVYYCATDYGWAPSYWYDSCGQGTQVTVSS	low polyreactivity
QFQLVESGGGLVQAGGSLRLSCAASGSIFTYNVMGWYRQAPRKERELVAAISDGDGSTYADSVKGRFTISRDNAKNTVYLQMNSLKPEDTAVYYCAAVDGRYLGGFNSRDGDWGQGTQVTVSS	low polyreactivity
QFQLVESGGGLVQAGGSLRLSCAASGSTFGYYAMGWYRQAPGKERELVAAISWSGDSTYYADSVKGRFSISRDNAKNTVYLQMNSLKPEDTAVYYCAAEVEYGYDYWGQGTQVTVSS	high polyreactivity
QFQLVESGGGLVQAGGSLRLSCAASGSTFKSYAMGWYRQAPGKEREFVAVITWSGGRTSYADSVKGRFTISRDNAKNTVYLQMNSLKPEDTAVYYCAAKAASRYRAFTYDYWGQGTQVTVSS	low polyreactivity
QFQLVESGGGLVQAGGSLRLSCAASGSTFPYYAMGWYRQAPGNERELVASIRKRGGGTYYADSVKGRFTISRDNAKNTVYFQMNILKPEDTAVYYCAVRVYQFRYTGYDYWGQGTQVTVSS	high polyreactivity
QFQLVESGGGLVQAGGSLRLSCAASGSTFTPYDMGWYRQAPGKERELVAVITGSDGTYYADSVKGRFTISRDNAKNTVYLQMNSLKPEDTAVYYCATDWTFGRWSTLGVEMDYWGQGTQVTVSS	low polyreactivity
QFQLVESGGGLVQAGGSLRLSCAASGSTFVWNAMGWYRPAPGKERELVAAITNDGRTNYADSVKGRFTISRDNAKNTVYLKMNSLKPEDTAVYYCNADGYNSYWWNYYWGQGTQVTVSS	low polyreactivity
QFQLVESGGGLVQAGGSLRLSCAASGSTFYTNAMGWYRQAPGKERELVAAITSRTGSTYYADSVKGRFTISRDNAKNTVYLQMNSLKPEDTAVYYCAADIYDWGGHYEYWGQGTQVTVSS	high polyreactivity
QFQLVESGGGLVQAGGSLRLSCAASGSTINPNTMVWSREAPGKERELVAVISSGGSTYYADSVKGRFTISRDNATNTVYLQMNSLKPEDSAVYYCAADRGTVSYLYCPRAVYYWGQGTQVTVSS	low polyreactivity

Sequence	polyreactivity (PSR sort gate)
QFQLVESGGGLVQAGGSLRLSCAASGSTLRLNVMGWYRQAPGKERELVARISRGCSTYYADSVKGRFTISRDNAKNTVYLQMNSLKPEDTAVYYCTAQSYPCVTPYSYWGQGTQVTVSS	low polyreactivity
QFQLVESGGGLVQAGGSLRLSCAATGSIFRGNAMGWYRQAPGKERELVAGINRAGSTKYADSVKGRFTISRDNAKNTVYLQMNSLKPEDTAVYYCAAVRYERGLWSDYWGQGTQVTVSS	high polyreactivity
QFQLVESGGGLVQAGGSLRLSCAAYGSTLYPYEMGWYRQAPGKERELVAAIDSGGSKNYADSVKGRFTISRDNAKNTVYLQMNSLKPEDTAVYYCAADGGVAWGYGYWGQGTQVTVSS	low polyreactivity
QFQLVESGGGLVQAGGSLRLSFAPSGSTFSYYAMGWYRPAPGKERELVAAISSRGGSTYYADSVKGRFTISRYNAKNTFYFQMNCLKAEDTDVYYSAAVLRGPDPTSTYYSWGQGTQVTVSS	high polyreactivity
QFQLVESGGGLVQAGGSLRLSSAASGFTFIRYAMGWYRPAPGKERELVAAITVSGTRTYYADSVKGRFTISRDNAKNTVYLQMNSLKPEDTAVYYCNARDVYTGYGMGYWGQGTQVTVSS	high polyreactivity
QFQLVESGGGLVQAGGSVRLSCAASGSTFYLYAMGWYRQAPGKERELVAAITYGGGSTYYADSVKGRFTISRDNAKNTVYLQMNSLKPEDTAVYYCAARWLYWPRYNSLVYTHRDSWGQGTQVTVSS	low polyreactivity
QFQLVESGGGLVQAGSRLRLICAASGSTFKYYTMGWYRQAPGKERELVATIRGSGTTYADSVKGRFTISRDNAKNTVYLQMNSLKPEDTAVYYCARLPPADMDYWGQATQVTVSS	low polyreactivity
QFQLVESGGGLVQAGVSLRLICAASVSTFGYNAMGWYRQAPGKERELVPANNGRGGGTYYADSVKGRFTISRDNAKNTVYLQINSLKPEDTAVYYCAKLRRAGTGRGSHVYRQSDYWGQGTQVTVSS	high polyreactivity
QFQLVESGGGLVQAGVSLRLSCAASGSTFYYGMVCSRHAPRKERELVAAISSRGGTTYYADSVKGRFTISRDNAKNTVYLQMNSLKPEDTAVYYCAAPVPYYVPSRNEGDYWGQGTQVTVSS	low polyreactivity
QFQLVESGGGLVQARGSLRLSCAPSGSTFGYYTMGWYRQAPGKERELVAAISWSGGSTYYADSVKGRFTISRDNAKNTVYLQMNSLKPEDTAVYYCAALGYTYKYYSYYWGQGTQVTVSS	high polyreactivity
QFQLVESGGGLVQEGGSLRISCAASGSIFNEYAMGWYRQAPGKERELVAAISTSGDITYYADSVKGRFTISLDTAKNTVYLQMNSLKPEDTAVYYCAAKYSLLRQYNRLDYWGQGTQVTVSS	low polyreactivity
QFQLVESGGVLVQAGGSLRLSCAASGSTFNHYAMGWYRQARGKERELVADITKSGASTYADSVKGRFTISRDNAKNSVYLQMNSLKPEDTAVYYCAAGRRNYGTKGRGDYWGQGTQVTVSS	low polyreactivity
QFQLVESGRGLVQAGGSLRLSCAASVRIFLWYAMGWYRQAPGKERELVAVIRGRGDSTSYADSVKGRFTISRDNAKNTVYLQMNSLKPEDTAVYYCADVGRYDYNYWGQGTQVTVSS	low polyreactivity
QFQLVESGVGLVQAGGSLRLSCAASGRIFTNYAMGWYRQAPGKERELVASINYSGATRNYADSVKGRFTISRDNAKNTVYLQMNSLKPEDTAVYYCNADIYPDLYGSTNYDFNYWGQGTQVTVSS	low polyreactivity
QFQLVESVGGLVQAGGSLRLSCAASGFIFGGYAMGWYIKAPGKERELVAAISSSGGSTYYADSVKGRFTISRDNAKNTVYLQMNSLKPEDTAVYYCAKVGWSRRYYYWGQGTQVTVSS	high polyreactivity
QFQLVESVGGLVQAGGSLRLSCAATGRTSYVYLMVSYRAATGTEMELVAAITGSGGSTYYADSVKGRFTISRDNEKNNVYLQLNSLKPEDTAVYYCAKAYYSYEVYLGLSYVRRYVYWGQGTQVTVSS	low polyreactivity
QFQLVEYGGGLFQAGGSLRLSCDASGSIFPYNDLGWYRQAPGKERELVARITNGGSTNYADSVKGRFTISRDNAKNTFYLQMNSLKPEDTAGYYCNKDGTQEFAPDGHEYWGQGTQVTVSS	low polyreactivity
QGHLVESGGGLVQAGGSLRLSCAASGFIFDYYAMGWYRQAPRKERELVAAITRDGGGTYYADSVTGRFTISRDNAKNTVYLQMNSLKPEDTAVYYCAARRAVRLYYWGQGTQVTVSS	high polyreactivity
QGQHVESGGGLVQAGGRLRLSCAASGSILSGYEMGRSREAPGKERELVASITRGGSTYYADSVKGRFTISRDNANNSVYFQMNSLNPEDPAVYDCARYGSKNRRLGMDYWGQGTQVTVSS	low polyreactivity
QGQHVESGGGLVQAGGSLRLSCAASGRIFVPYAMGWYRQAPGKERELVAAITWRGGSPYYADSVKGRFTLSRDNAKNTVYLQMNSLKPVDTAVYYCNAAEASPWFWFSHLQVGMDYWGQGTQVTVSW	low polyreactivity
QGQLEESGGGLVQAGGSLRLSCAASGSIFGENAMGWYRQAPGKDRELVAAISSAGSTKYADSVKGRFTISRDNAKNSVYFQMNSLKPEDTAVYYCAAGYYRTSYPYSYYYWGQGTQVTVSS	low polyreactivity
